± gives the standard deviation of the averaged measurements.
Experiment: total protein half-life in vivo (active degradation + dilution); higher = more stable protein
[1] = E. coli NCM3722 delta-clpP delta-lon delta-hslV, growth: N-lim chemostat, doubling time 6 h
[2] = E. coli NCM3722 delta-clpP, growth: N-lim chemostat, doubling time 6 h
[3] = E. coli NCM3722 delta-hslV, growth: N-lim chemostat, doubling time 6 h
[4] = E. coli NCM3722 delta-lon, growth: N-lim chemostat, doubling time 6 h
[5] = E. coli NCM3722 delta-smpB, growth: N-lim chemostat, doubling time 6 h
[6] = wild type E. coli NCM3722, growth: C-lim chemostat, doubling time 3 h
[7] = wild type E. coli NCM3722, growth: C-lim chemostat, doubling time 6 h
[8] = wild type E. coli NCM3722, growth: C-lim chemostat, doubling time 12 h
[9] = wild type E. coli NCM3722, growth: N-lim chemostat, doubling time 6 h
[10] = wild type E. coli NCM3722, growth: N-lim chemostat, doubling time 12 h
[11] = wild type E. coli NCM3722, growth: P-lim chemostat, doubling time 6 h
[12] = wild type E. coli NCM3722, growth: P-lim chemostat, doubling time 12 h

| Sequence | total protein half-life in vivo [1] | total protein half-life in vivo [2] | total protein half-life in vivo [3] | total protein half-life in vivo [4] | total protein half-life in vivo [5] | total protein half-life in vivo [6] | total protein half-life in vivo [7] | total protein half-life in vivo [8] | total protein half-life in vivo [9] | total protein half-life in vivo [10] | total protein half-life in vivo [11] | total protein half-life in vivo [12] |
| --- | --- | --- | --- | --- | --- | --- | --- | --- | --- | --- | --- | --- |
| MSEISRQEFQRRRQALVEQMQPGSAALIFAAPEVTRSADSEYPYRQNSDFWYFTGFNEPEAVLVLIKSDDTHNHSVLFNRVRDLTAEIWFGRRLGQDAAPEKLGVDRALAFSEINQQLYQLLNGLDVVYHAQGEYAYADVIVNSALEKLRKGSRQNLTAPATMIDWRPVVHEMRLFKSPEEIAVLRRAGEITAMAHTRAMEKCRPGMFEYHLEGEIHHEFNRHGARYPSYNTIVGSGENGCILHYTENECEMRDGDLVLIDAGCEYKGYAGDITRTFPVNGKFTQAQREIYDIVLESLETSLRLYRPGTSILEVTGEVVRIMVSGLVKLGILKGDVDELIAQNAHRPFFMHGLSHWLGLDVHDVGVYGQDRSRILEPGMVLTVEPGLYIAPDAEVPEQYRGIGIRIEDDIVITETGNENLTASVVKKPEEIEALMVAARKQ | 5.813 ± 0.036 h | 6.45 ± 0.88 h | 5.23 ± 0.15 h | 6 ± 0.092 h | 5.36 ± 0.3 h | 3.12 ± 0.1 h | 6 ± 0.22 h | 12.4 ± 1.5 h | 5.53 ± 0.15 h | 10.3 ± 0.72 h | 5.95 ± 0.51 h | 12.8 ± 0.42 h |
| MSEIVVSKFGGTSVADFDAMNRSADIVLSDANVRLVVLSASAGITNLLVALAEGLEPGERFEKLDAIRNIQFAILERLRYPNVIREEIERLLENITVLAEAAALATSPALTDELVSHGELMSTLLFVEILRERDVQAQWFDVRKVMRTNDRFGRAEPDIAALAELAALQLLPRLNEGLVITQGFIGSENKGRTTTLGRGGSDYTAALLAEALHASRVDIWTDVPGIYTTDPRVVSAAKRIDEIAFAEAAEMATFGAKVLHPATLLPAVRSDIPVFVGSSKDPRAGGTLVCNKTENPPLFRALALRRNQTLLTLHSLNMLHSRGFLAEVFGILARHNISVDLITTSEVSVALTLDTTGSTSTGDTLLTQSLLMELSALCRVEVEEGLALVALIGNDLSKACGVGKEVFGVLEPFNIRMICYGASSHNLCFLVPGEDAEQVVQKLHSNLFE | 4.06 ± 0.69 h | 2.98 ± 0.29 h | 2.67 ± 0.073 h | 3.15 ± 0.3 h | 2.54 ± 0.31 h | 3.142 ± 0.0098 h | 4.67 ± 0.34 h | 8.44 ± 2.4 h | 2.9 ± 0.23 h | 4.25 ± 0.55 h | 5.46 ± 0.4 h | 10.1 ± 1.1 h |
| MSEKHPGPLVVEGKLTDAERMKHESNYLRGTIAEDLNDGLTGGFKGDNFLLIRFHGMYQQDDRDIRAERAEQKLEPRHAMLLRCRLPGGVITTKQWQAIDKFAGENTIYGSIRLTNRQTFQFHGILKKNVKPVHQMLHSVGLDALATANDMNRNVLCTSNPYESQLHAEAYEWAKKISEHLLPRTRAYAEIWLDQEKVATTDEEPILGQTYLPRKFKTTVVIPPQNDIDLHANDMNFVAIAENGKLVGFNLLVGGGLSIEHGNKKTYARTASEFGYLPLEHTLAVAEAVVTTQRDWGNRTDRKNAKTKYTLERVGVETFKAEVERRAGIKFEPIRPYEFTGRGDRIGWVKGIDDNWHLTLFIENGRILDYPARPLKTGLLEIAKIHKGDFRITANQNLIIAGVPESEKAKIEKIAKESGLMNAVTPQRENSMACVSFPTCPLAMAEAERFLPSFIDNIDNLMAKHGVSDEHIVMRVTGCPNGCGRAMLAEVGLVGKAPGRYNLHLGGNRIGTRIPRMYKENITEPEILASLDELIGRWAKEREAGEGFGDFTVRAGIIRPVLDPARDLWD | 4.99 ± 0.69 h | 3.79 ± 0.29 h | 2.52 ± 0.056 h | 3.07 ± 0.14 h | 2.55 ± 0.1 h | 2.55 ± 0.13 h | 4.1634 ± 0.0008 h | 5.98 ± 0.51 h | 2.82 ± 0.28 h | 3.73 ± 0.062 h | 3.91 ± 0.24 h | 6.82 ± 0.1 h |
| MSEKLQVVTLLGSLRKGSFNGMVARTLPKIAPASMEVNALPSIADIPLYDADVQQEEGFPATVEALAEQIRQADGVVIVTPEYNYSVPGGLKNAIDWLSRLPDQPLAGKPVLIQTSSMGVIGGARCQYHLRQILVFLDAMVMNKPEFMGGVIQNKVDPQTGEVIDQGTLDHLTGQLTAFGEFIQRVKI [P0AGE6] | 6.73 ± 1.1 h | 5.46 ± 0.56 h | 5.61 ± 0.31 h | 5.83 ± 0.28 h | 5.24 ± 0.12 h | 3.116 ± 0.014 h | 5.74 ± 0.21 h | 11.1 ± 0.21 h | 5.27 ± 0.43 h | 9.39 ± 0.36 h | 5.31 ± 0.077 h | 12.1 ± 0.48 h |
| MSELIVSRQQRVLLLTLNRPAARNALNNALLMQLVNELEAAATDTSISVCVITGNARFFAAGADLNEMAEKDLAATLNDTRPQLWARLQAFNKPLIAAVNGYALGAGCELALLCDVVVAGENARFGLPEITLGIMPGAGGTQRLIRSVGKSLASKMVLSGESITAQQAQQAGLVSDVFPSDLTLEYALQLASKMARHSPLALQAAKQALRQSQEVALQAGLAQERQLFTLLAATEDRHEGISAFLQKRTPDFKGR | 5.63 h | – | – | – | – | 2.67 h | – | 6.46 h | – | – | – | 6.46 h |
